Source: patent publication US20200297818A1 (ZEALAND PHARMA A S, published 2020)

T1: human GLP-2 receptor (hGLP2-R) (human, UniProt O95838 1-553)
T1 sequence (looked up): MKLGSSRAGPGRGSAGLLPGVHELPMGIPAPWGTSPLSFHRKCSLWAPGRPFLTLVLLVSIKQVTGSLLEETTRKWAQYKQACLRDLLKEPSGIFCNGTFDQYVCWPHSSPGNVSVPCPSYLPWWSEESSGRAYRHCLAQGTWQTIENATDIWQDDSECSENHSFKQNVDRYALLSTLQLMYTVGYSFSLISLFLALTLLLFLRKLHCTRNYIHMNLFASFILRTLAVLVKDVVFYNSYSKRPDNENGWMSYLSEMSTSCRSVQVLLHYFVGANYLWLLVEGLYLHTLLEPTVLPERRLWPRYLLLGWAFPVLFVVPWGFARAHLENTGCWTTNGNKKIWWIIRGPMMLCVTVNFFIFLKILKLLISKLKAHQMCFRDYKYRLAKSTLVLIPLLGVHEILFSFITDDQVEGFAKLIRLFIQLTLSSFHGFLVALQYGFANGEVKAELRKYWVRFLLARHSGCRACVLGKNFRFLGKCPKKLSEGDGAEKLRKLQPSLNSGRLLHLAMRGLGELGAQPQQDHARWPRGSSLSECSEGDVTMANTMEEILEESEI


Key:
[1] = target: human glucagon-like peptide 1 receptor (GLP-1 R) (human, UniProt P43220 24-463); experiment: cell-based or functional assay
[2] = target: T1, human GLP-2 receptor (hGLP2-R); experiment: cell-based or functional assay

EC50 GLP-1 (nM); cAMP response [1] [nM]	EC50 GLP-2 (nM); cAMP response [2] [nM]	Binder
1.8	0.087	HXEGTFSSELATILDXLAARDFIAWLIEHKITD (HELM PEPTIDE1{H.[Aib].E.G.T.F.S.S.E.L.A.T.I.L.D.K.L.A.A.R.D.F.I.A.W.L.I.E.H.K.I.T.D}|PEPTIDE2{[O=C(O)CCCCCCCCCCCCCCCCC(=O)[*:2]].[gGlu]}$PEPTIDE1,PEPTIDE2,16:R3-2:R2$$$V2.0; SMILES CC[C@H](C)[C@H](NC(=O)[C@H](Cc1ccccc1)NC(=O)[C@H](CC(=O)O)NC(=O)[C@H](CCCNC(=N)N)NC(=O)[C@H](C)NC(=O)[C@H](C)NC(=O)[C@H](CC(C)C)NC(=O)[C@H](CCCCNC(=O)CC[C@H](NC(=O)CCCCCCCCCCCCCCCCC(=O)O)C(=O)O)NC(=O)[C@H](CC(=O)O)NC(=O)[C@H](CC(C)C)NC(=O)[C@@H](NC(=O)[C@@H](NC(=O)[C@H](C)NC(=O)[C@H](CC(C)C)NC(=O)[C@H](CCC(=O)O)NC(=O)[C@H](CO)NC(=O)[C@H](CO)NC(=O)[C@H](Cc1ccccc1)NC(=O)[C@@H](NC(=O)CNC(=O)[C@H](CCC(=O)O)NC(=O)C(C)(C)NC(=O)[C@@H](N)Cc1c[nH]cn1)[C@@H](C)O)[C@@H](C)O)[C@@H](C)CC)C(=O)N[C@@H](C)C(=O)N[C@@H](Cc1c[nH]c2ccccc12)C(=O)N[C@@H](CC(C)C)C(=O)N[C@H](C(=O)N[C@@H](CCC(=O)O)C(=O)N[C@@H](Cc1c[nH]cn1)C(=O)N[C@@H](CCCCN)C(=O)N[C@H](C(=O)N[C@H](C(=O)N[C@@H](CC(=O)O)C(=O)O)[C@@H](C)O)[C@@H](C)CC)[C@@H](C)CC) [Compound 10]
0.25	0.16	HXEGTFTSELATILDXLAARDFIAWLIAHKITD (HELM PEPTIDE1{H.[Aib].E.G.T.F.T.S.E.L.A.T.I.L.D.K.L.A.A.R.D.F.I.A.W.L.I.A.H.K.I.T.D}|PEPTIDE2{[O=C(O)CCCCCCCCCCCCCCCCC(=O)[*:2]].[gGlu]}$PEPTIDE1,PEPTIDE2,16:R3-2:R2$$$V2.0; SMILES CC[C@H](C)[C@H](NC(=O)[C@H](CC(C)C)NC(=O)[C@H](Cc1c[nH]c2ccccc12)NC(=O)[C@H](C)NC(=O)[C@@H](NC(=O)[C@H](Cc1ccccc1)NC(=O)[C@H](CC(=O)O)NC(=O)[C@H](CCCNC(=N)N)NC(=O)[C@H](C)NC(=O)[C@H](C)NC(=O)[C@H](CC(C)C)NC(=O)[C@H](CCCCNC(=O)CC[C@H](NC(=O)CCCCCCCCCCCCCCCCC(=O)O)C(=O)O)NC(=O)[C@H](CC(=O)O)NC(=O)[C@H](CC(C)C)NC(=O)[C@@H](NC(=O)[C@@H](NC(=O)[C@H](C)NC(=O)[C@H](CC(C)C)NC(=O)[C@H](CCC(=O)O)NC(=O)[C@H](CO)NC(=O)[C@@H](NC(=O)[C@H](Cc1ccccc1)NC(=O)[C@@H](NC(=O)CNC(=O)[C@H](CCC(=O)O)NC(=O)C(C)(C)NC(=O)[C@@H](N)Cc1c[nH]cn1)[C@@H](C)O)[C@@H](C)O)[C@@H](C)O)[C@@H](C)CC)[C@@H](C)CC)C(=O)N[C@@H](C)C(=O)N[C@@H](Cc1c[nH]cn1)C(=O)N[C@@H](CCCCN)C(=O)N[C@H](C(=O)N[C@H](C(=O)N[C@@H](CC(=O)O)C(=O)O)[C@@H](C)O)[C@@H](C)CC) [Compound 15]
0.57	0.086	HXEGSFTSELATILDXLAARDFIAWLIAHKITD (HELM PEPTIDE1{H.[Aib].E.G.S.F.T.S.E.L.A.T.I.L.D.K.L.A.A.R.D.F.I.A.W.L.I.A.H.K.I.T.D}|PEPTIDE2{[O=C(O)CCCCCCCCCCCCCCCCC(=O)[*:2]].[gGlu]}$PEPTIDE1,PEPTIDE2,16:R3-2:R2$$$V2.0; SMILES CC[C@H](C)[C@H](NC(=O)[C@H](CC(C)C)NC(=O)[C@H](Cc1c[nH]c2ccccc12)NC(=O)[C@H](C)NC(=O)[C@@H](NC(=O)[C@H](Cc1ccccc1)NC(=O)[C@H](CC(=O)O)NC(=O)[C@H](CCCNC(=N)N)NC(=O)[C@H](C)NC(=O)[C@H](C)NC(=O)[C@H](CC(C)C)NC(=O)[C@H](CCCCNC(=O)CC[C@H](NC(=O)CCCCCCCCCCCCCCCCC(=O)O)C(=O)O)NC(=O)[C@H](CC(=O)O)NC(=O)[C@H](CC(C)C)NC(=O)[C@@H](NC(=O)[C@@H](NC(=O)[C@H](C)NC(=O)[C@H](CC(C)C)NC(=O)[C@H](CCC(=O)O)NC(=O)[C@H](CO)NC(=O)[C@@H](NC(=O)[C@H](Cc1ccccc1)NC(=O)[C@H](CO)NC(=O)CNC(=O)[C@H](CCC(=O)O)NC(=O)C(C)(C)NC(=O)[C@@H](N)Cc1c[nH]cn1)[C@@H](C)O)[C@@H](C)O)[C@@H](C)CC)[C@@H](C)CC)C(=O)N[C@@H](C)C(=O)N[C@@H](Cc1c[nH]cn1)C(=O)N[C@@H](CCCCN)C(=O)N[C@H](C(=O)N[C@H](C(=O)N[C@@H](CC(=O)O)C(=O)O)[C@@H](C)O)[C@@H](C)CC) [Compound 14]
2.2	0.099	HXEGTFSSELATILDXLAARDFIAWLIAHKITD (HELM PEPTIDE1{H.[Aib].E.G.T.F.S.S.E.L.A.T.I.L.D.K.L.A.A.R.D.F.I.A.W.L.I.A.H.K.I.T.D}|PEPTIDE2{[O=C(O)CCCCCCCCCCCCCCCCC(=O)[*:2]].[gGlu]}$PEPTIDE1,PEPTIDE2,16:R3-2:R2$$$V2.0; SMILES CC[C@H](C)[C@H](NC(=O)[C@H](CC(C)C)NC(=O)[C@H](Cc1c[nH]c2ccccc12)NC(=O)[C@H](C)NC(=O)[C@@H](NC(=O)[C@H](Cc1ccccc1)NC(=O)[C@H](CC(=O)O)NC(=O)[C@H](CCCNC(=N)N)NC(=O)[C@H](C)NC(=O)[C@H](C)NC(=O)[C@H](CC(C)C)NC(=O)[C@H](CCCCNC(=O)CC[C@H](NC(=O)CCCCCCCCCCCCCCCCC(=O)O)C(=O)O)NC(=O)[C@H](CC(=O)O)NC(=O)[C@H](CC(C)C)NC(=O)[C@@H](NC(=O)[C@@H](NC(=O)[C@H](C)NC(=O)[C@H](CC(C)C)NC(=O)[C@H](CCC(=O)O)NC(=O)[C@H](CO)NC(=O)[C@H](CO)NC(=O)[C@H](Cc1ccccc1)NC(=O)[C@@H](NC(=O)CNC(=O)[C@H](CCC(=O)O)NC(=O)C(C)(C)NC(=O)[C@@H](N)Cc1c[nH]cn1)[C@@H](C)O)[C@@H](C)O)[C@@H](C)CC)[C@@H](C)CC)C(=O)N[C@@H](C)C(=O)N[C@@H](Cc1c[nH]cn1)C(=O)N[C@@H](CCCCN)C(=O)N[C@H](C(=O)N[C@H](C(=O)N[C@@H](CC(=O)O)C(=O)O)[C@@H](C)O)[C@@H](C)CC) [Compound 13]
0.32	0.085	HXEGSFTSELATILDXLAARDFIAWLIEHKITD (HELM PEPTIDE1{H.[Aib].E.G.S.F.T.S.E.L.A.T.I.L.D.K.L.A.A.R.D.F.I.A.W.L.I.E.H.K.I.T.D}|PEPTIDE2{[O=C(O)CCCCCCCCCCCCCCCCC(=O)[*:2]].[gGlu]}$PEPTIDE1,PEPTIDE2,16:R3-2:R2$$$V2.0; SMILES CC[C@H](C)[C@H](NC(=O)[C@H](Cc1ccccc1)NC(=O)[C@H](CC(=O)O)NC(=O)[C@H](CCCNC(=N)N)NC(=O)[C@H](C)NC(=O)[C@H](C)NC(=O)[C@H](CC(C)C)NC(=O)[C@H](CCCCNC(=O)CC[C@H](NC(=O)CCCCCCCCCCCCCCCCC(=O)O)C(=O)O)NC(=O)[C@H](CC(=O)O)NC(=O)[C@H](CC(C)C)NC(=O)[C@@H](NC(=O)[C@@H](NC(=O)[C@H](C)NC(=O)[C@H](CC(C)C)NC(=O)[C@H](CCC(=O)O)NC(=O)[C@H](CO)NC(=O)[C@@H](NC(=O)[C@H](Cc1ccccc1)NC(=O)[C@H](CO)NC(=O)CNC(=O)[C@H](CCC(=O)O)NC(=O)C(C)(C)NC(=O)[C@@H](N)Cc1c[nH]cn1)[C@@H](C)O)[C@@H](C)O)[C@@H](C)CC)C(=O)N[C@@H](C)C(=O)N[C@@H](Cc1c[nH]c2ccccc12)C(=O)N[C@@H](CC(C)C)C(=O)N[C@H](C(=O)N[C@@H](CCC(=O)O)C(=O)N[C@@H](Cc1c[nH]cn1)C(=O)N[C@@H](CCCCN)C(=O)N[C@H](C(=O)N[C@H](C(=O)N[C@@H](CC(=O)O)C(=O)O)[C@@H](C)O)[C@@H](C)CC)[C@@H](C)CC) [Compound 11]
0.14	0.11	HXEGTFTSELATILDXLAARDFIAWLIEHKITD (HELM PEPTIDE1{H.[Aib].E.G.T.F.T.S.E.L.A.T.I.L.D.K.L.A.A.R.D.F.I.A.W.L.I.E.H.K.I.T.D}|PEPTIDE2{[O=C(O)CCCCCCCCCCCCCCCCC(=O)[*:2]].[gGlu]}$PEPTIDE1,PEPTIDE2,16:R3-2:R2$$$V2.0; SMILES CC[C@H](C)[C@H](NC(=O)[C@H](Cc1ccccc1)NC(=O)[C@H](CC(=O)O)NC(=O)[C@H](CCCNC(=N)N)NC(=O)[C@H](C)NC(=O)[C@H](C)NC(=O)[C@H](CC(C)C)NC(=O)[C@H](CCCCNC(=O)CC[C@H](NC(=O)CCCCCCCCCCCCCCCCC(=O)O)C(=O)O)NC(=O)[C@H](CC(=O)O)NC(=O)[C@H](CC(C)C)NC(=O)[C@@H](NC(=O)[C@@H](NC(=O)[C@H](C)NC(=O)[C@H](CC(C)C)NC(=O)[C@H](CCC(=O)O)NC(=O)[C@H](CO)NC(=O)[C@@H](NC(=O)[C@H](Cc1ccccc1)NC(=O)[C@@H](NC(=O)CNC(=O)[C@H](CCC(=O)O)NC(=O)C(C)(C)NC(=O)[C@@H](N)Cc1c[nH]cn1)[C@@H](C)O)[C@@H](C)O)[C@@H](C)O)[C@@H](C)CC)C(=O)N[C@@H](C)C(=O)N[C@@H](Cc1c[nH]c2ccccc12)C(=O)N[C@@H](CC(C)C)C(=O)N[C@H](C(=O)N[C@@H](CCC(=O)O)C(=O)N[C@@H](Cc1c[nH]cn1)C(=O)N[C@@H](CCCCN)C(=O)N[C@H](C(=O)N[C@H](C(=O)N[C@@H](CC(=O)O)C(=O)O)[C@@H](C)O)[C@@H](C)CC)[C@@H](C)CC) [Compound 12]
